Assay results published in patent publication US20140134690A1, “MICROBES AND METHODS FOR PRODUCING 1-PROPANOL” (University of Georgia Research Foundation, Inc., priority 2012, published 2014).

Columns and labels:
Test in all cases: cells, lysate or membranes named
[1] = substrate: O=C(CO)COP(=O)(O)O; type: biochemical, P. fluorescens; conditions: other: substrate dihydroxyacetone phosphate 0.15-1.5 mM, crude extract, imidazole-HCl pH 7.0, 30° C.
From the text: (§1) 1,2-Propanediol pathway branches from glycolysis and competes for the intermediate dihydroxyacetone phosphate, with the glycolytic pathway. […] We amplified the mgsA genes from the microorganisms: C. acetobutylicum (ATCC#824), B. subtilis 168, C. difficile R20291, E. coli MG1655, T. thermophilus HB27, K. pneumoniae MGH78578, P. fluorescens Pf-5, and R. eutropha H16 respectively. These genes were cloned and expressed in wild type E. coli BW25113 using eight plasmids pRJ1-pRJ8. Each gene was under the control of the IPTG-inducible pLlacO1 promoter. Using dihydroxyacetone-phosphate as the substrate, we successfully detected the functional expression of all mgsA genes in vitro, where the specific activities varied from 0.0052 U/mg to 0.1242 U/mg (Table 1). […] Without the over-expression of mgsA gene, we also detected the native expression of E. coli mgsA, which gave a specific activity of only 0.0008 U/mg, much lower than that of any over-expression.
(§2) Using the primers listed in Table 5, the mgsA genes were PCR amplified from the genomic DNA of C. acetobutylicum (ATCC824), B. subtilis 168, Clostridium difficile R20291, E. coli MG1655, Thermus thermophilus HB27, K. pneumoniae MGH78578, Pseudomonas fluorescens Pf-5, and Ralstonia eutropha H16 respectively. […]
(§3) The assay was carried out using a two-step procedure. […] The samples were diluted 10 times before measuring the absorbance at 550 nm.

[2] = substrate: O=C(CO)COP(=O)(O)O; type: biochemical, R. eutropha; conditions: other: substrate dihydroxyacetone phosphate 0.15-1.5 mM, crude extract, imidazole-HCl pH 7.0, 30° C.
From the text: as §1, §2, §3

[3] = substrate: CC(=O)C=O; type: biochemical, E. coli; conditions: other: substrate methylglyoxal 20-120 mM, 0.25 mM NADH, crude extract, imidazole-HCl pH 7.0, 37° C.
Method: When the gene is over-expressed by pRJ10, the specific activity was determined to be 1.62±0.012 U/mg.

[4] = substrate: O=C(CO)COP(=O)(O)O; type: biochemical, C. acetobutylicum; conditions: other: substrate dihydroxyacetone phosphate 0.15-1.5 mM, crude extract, imidazole-HCl pH 7.0, 30° C.
From the text: as §1, §2, §3

[5] = substrate: O=C(CO)COP(=O)(O)O; type: biochemical, B. subtilis; conditions: other: substrate dihydroxyacetone phosphate 0.15-1.5 mM, crude extract, imidazole-HCl pH 7.0, 30° C.
From the text: as §1, §2, §3

[6] = substrate: O=C(CO)COP(=O)(O)O; type: biochemical, T. thermophilus; conditions: other: substrate dihydroxyacetone phosphate 0.15-1.5 mM, crude extract, imidazole-HCl pH 7.0, 30° C.
From the text: as §1, §2, §3

B1: Pseudomonas fluorescens Pf-5 methylglyoxal synthase (mgsA), wild type (Pseudomonas protegens Pf-5) (protein)
chain: MIGISFTHKTMAARKRIALVAHDHCKAFLLEWAGRQKARLAEHELVATGTTGLLLSKHLGLPVESMISGPLGGDQQLGAQIAEQRVDLLVFFWDPFEPQPHDPDIKALLRVAAVWNIPVACNECSADYLLSSPLMNQAHEHRIPDYQAYLAGRG
- Km [1]: 1560 ± 20 µM

B2: Ralstonia eutropha H16 methylglyoxal synthase (mgsA), wild type (Cupriavidus necator H16) (protein)
chain: MTRPRIALIAHDHKKDDIVAFATRHRAFLSQCELLATGTTGGRLIDEVGLEVTRMLSGPWGGDLQIGAQLAVGLVRAVVFLRDPMTPQPHEPDINALVRACDVHNVPCATNVATAELLIAGLAREVDEAAAS
- Km [2]: 700 ± 30 µM

B3: E. coli MG1655 methylglyoxal reductase (ydjG), wild type (Escherichia coli K-12) (protein)
chain: MKKIPLGTTDITLSRMGLGTWAIGGGPAWNGDLDRQICIDTILEAHRCGINLIDTAPGYNFGNSEVIVGQALKKLPREQVVVETKCGIVWERKGSLFNKVGDRQLYKNLSPESIREEVAASLQRLGIDYIDIYMTHWQSVPPFFTPIAETVAVLNELKSEGKIRAIGAANVDADHIREYLQYGELDIIQAKYSILDRAMENELLPLCRDNGIVVQVYSPLEQGLLTGTITRDYVPGGARANKVWFQRENMLKVIDMLEQWQPLCARYQCTIPTLALAWILKQSDLISILSGATAPEQVRENVAALNINLSDADATLMREMAEALER
- Km [3]: 3310 ± 20 µM

B4: Clostridium acetobutylicum (ATCC 824) methylglyoxal synthase (mgsA), wild type (Clostridium acetobutylicum ATCC 824) (protein)
chain: MNSKKKIALVAHDNRKKALISWCEANSEVLSNHSLCGTGTTAKLIKEATGLEVFPYKSGPMGGDQQIGAAIVNEDIDFMIFFWDPLTAQPHDPDVKALLRISVLYDIPIAMNESTAEFLIKSPIMKEQHERHIIDYYQKIRKDNF
- Km [4]: 776 ± 5 µM

B5: Bacillus subtilis 168 methylglyoxal synthase (mgsA), wild type (Bacillus subtilis subsp. subtilis str. 168) (protein)
chain: MKIALIAHDKKKQDMVQFTTAYRDILKNHDLYATGTTGLKIHEATGLQIERFQSGPLGGDQQIGALIAANALDLVIFLRDPLTAQPHEPDVSALIRLCDVYSIPLATNMGTAEILVRTLDEGVFEFRDLLRGEEPNV
- Km [5]: 473 ± 70 µM

B6: Thermus thermophilus HB27 methylglyoxal synthase (mgsA), wild type (Thermus thermophilus HB27) (protein)
chain: MKALALIAHDAKKDEMVAFCLRHKDVLARYPLLATGTTGARIQEATGLAVERVLSGPLGGDLQIGARVAEGKVLAVVFLQDPLTAKPHEPDVQALMRVCNVHGVPLATNLVAAEALIAWIRKGTPQ
- Km [6]: 2118 ± 70 µM
